This note sets out measurements from patent publication US20200048612.

The series addresses Histone H3 trimethylated at lysine 27 (H3K27me3), nucleosomal, in human ES cells.

B1: HA-tagged full-length JMJD3 (protein)
chain: MHRAVDPPGARAAREAFALGGLSCAGAWSSCPPHPPPRSAWLPGGRCSASIGQPPLPAPLPPSHGSSSGHPSKPYYAPGAPTPRPLHGKLESLHGCVQALLREPAQPGLWEQLGQLYESEHDSEEATRCYHSALRYGGSFAELGPRIGRLQQAQLWNFHTGSCQHRAKVLPPLEQVWNLLHLEHKRNYGAKRGGPPVKRAAEPPVVQPVPPAALSGPSGEEGLSPGGKRRRGCNSEQTGLPPGLPLPPPPLPPPPPPPPPPPPPLPGLATSPPFQLTKPGLWSTLHGDAWGPERKGSAPPERQEQRHSLPHPYPYPAPAYTAHPPGHRLVPAAPPGPGPRPPGAESHGCLPATRPPGSDLRESRVQRSRMDSSVSPAATTACVPYAPSRPPGLPGTTTSSSSSSSSNTGLRGVEPNPGIPGADHYQTPALEVSHHGRLGPSAHSSRKPFLGAPAATPHLSLPPGPSSPPPPPCPRLLRPPPPPAWLKGPACRAAREDGEILEELFFGTEGPPRPAPPPLPHREGFLGPPASRFSVGTQDSHTPPTPPTPTTSSSNSNSGSHSSSPAGPVSFPPPPYLARSIDPLPRPPSPAQNPQDPPLVPLTLALPPAPPSSCHQNTSGSFRRPESPRPRVSFPKTPEVGPGPPPGPLSKAPQPVPPGVGELPARGPRLFDFPPTPLEDQFEEPAEFKILPDGLANIMKMLDESIRKEEEQQQHEAGVAPQPPLKEPFASLQSPFPTDTAPTTTAPAVAVTTTTTTTTTTTATQEEEKKPPPALPPPPPLAKFPPPSQPQPPPPPPPSPASLLKSLASVLEGQKYCYRGTGAAVSTRPGPLPTTQYSPGPPSGATALPPTSAAPSAQGSPQPSASSSSQFSTSGGPWARERRAGEEPVPGPMTPTQPPPPLSLPPARSESEVLEEISRACETLVERVGRSATDPADPVDTAEPADSGTERLLPPAQAKEEAGGVAAVSGSCKRRQKEHQKEHRRHRRACKDSVGRRPREGRAKAKAKVPKEKSRRVLGNLDLQSEEIQGREKSRPDLGGASKAKPPTAPAPPSAPAPSAQPTPPSASVPGKKAREEAPGPPGVSRADMLKLRSLSEGPPKELKIRLIKVESGDKETFIASEVEERRLRMADLTISHCAADVVRASRNAKVKGKFRESYLSPAQSVKPKINTEEKLPREKLNPPTPSIYLESKRDAFSPVLLQFCTDPRNPITVIRGLAGSLRLNLGLFSTKTLVEASGEHTVEVRTQVQQPSDENWDLTGTRQIWPCESSRSHTTIAKYAQYQASSFQESLQEEKESEDEESEEPDSTTGTPPSSAPDPKNHHIIKFGTNIDLSDAKRWKPQLQELLKLPAFMRVTSTGNMLSHVGHTILGMNTVQLYMKVPGSRTPGHQENNNFCSVNINIGPGDCEWFAVHEHYWETISAFCDRHGVDYLTGSWWPILDDLYASNIPVYRFVQRPGDLVWINAGTVHWVQATGWCNNIAWNVGPLTAYQYQLALERYEWNEVKNVKSIVPMIHVSWNVARTVKISDPDLFKMIKFCLLQSMKHCQVQRESLVRAGKKIAYQGRVKDEPAYYCNECDVEVFNILFVTSENGSRNTYLVHCEGCARRRSAGLQGVVVLEQYRTEELAQAYDAFTLVRARRARGQRRRALGQAAGTGFGSPAAPFPEPPPAFSPQAPASTSR
For the protein B1, the “H3K27me3 level by immunostaining and immunoblotting, 8 hours after introduction of synthetic mRNA into hESCs” value is on record as “the introduction of the JMJD3c mRNA induced a more significant decrease in H3K27me3 as compared to the JMJD3f mRNA”.

B2: HA-tagged JMJD3c (catalytic domain-containing C-terminus of JMJD3) (protein)
chain: QSEEIQGREKSRPDLGGASKAKPPTAPAPPSAPAPSAQPTPPSASVPGKKAREEAPGPPGVSRADMLKLRSLSEGPPKELKIRLIKVESGDKETFIASEVEERRLRMADLTISHCAADVVRASRNAKVKGKFRESYLSPAQSVKPKINTEEKLPREKLNPPTPSIYLESKRDAFSPVLLQFCTDPRNPITVIRGLAGSLRLNLGLFSTKTLVEASGEHTVEVRTQVQQPSDENWDLTGTRQIWPCESSRSHTTIAKYAQYQASSFQESLQEEKESEDEESEEPDSTTGTPPSSAPDPKNHHIIKFGTNIDLSDAKRWKPQLQELLKLPAFMRVTSTGNMLSHVGHTILGMNTVQLYMKVPGSRTPGHQENNNFCSVNINIGPGDCEWFAVHEHYWETISAFCDRHGVDYLTGSWWPILDDLYASNIPVYRFVQRPGDLVWINAGTVHWVQATGWCNNIAWNVGPLTAYQYQLALERYEWNEVKNVKSIVPMIHVSWNVARTVKISDPDLFKMIKFCLLQSMKHCQVQRESLVRAGKKIAYQGRVKDEPAYYCNECDVEVFNILFVTSENGSRNTYLVHCEGCARRRSAGLQGVVVLEQYRTEELAQAYDAFTLVRARRARGQRRRALGQAAGTGFGSPAAPFPEPPPAFSPQAPASTSR
As to B2, the “H3K27me3 level after doxycycline-induced expression in JMJD3c-hESCs” value is “Dox treatment (1 µg/ml) induced HA-JMJD3c expression and a significant decrease in H3K27me3 in all hESCs”; the “H3K27me3 level by immunostaining and immunoblotting, 8 hours after introduction of synthetic mRNA into hESCs” value is recorded as “the introduction of the JMJD3c mRNA induced a more significant decrease in H3K27me3 as compared to the JMJD3f mRNA”.
